This note sets out measurements from patent EP2225268B1.

Experiment [1] has as its target Native NGAL purchased from Diagnostics Development (Uppsala, Sweden), non-reduced (UniProt P80188). The experiment is described as follows: … sandwich CMIA, capture HYB 211-01, detection acridinium-HYB 211-02; NGAL 250 ng/mL.
In experiment [2] the target is Wild-type recombinant human NGAL dimer calibrators treated with DTT (human) (UniProt P80188). Described as above.
In experiment [3] the target is Wild-type recombinant human NGAL dimer expressed in CHO cells (human) (UniProt P80188). The experiment is described as above.
The target in experiment [4] is Wild-type recombinant human NGAL monomer expressed in CHO cells (human) (UniProt P80188). Described as above.
In experiment [5] the target is Wild-type recombinant human NGAL dimer calibrators treated with DTT (human) (UniProt P80188). The experiment is described as follows: … sandwich CMIA, capture HYB 211-01, detection acridinium-HYB 211-02; calibrator B, NGAL 5 ng/mL.
Experiment [6] has as its target Wild-type recombinant human NGAL dimer expressed in CHO cells (human) (UniProt P80188). The description is as above.
Experiment [7] addresses Wild-type recombinant human NGAL monomer expressed in CHO cells (human) (UniProt P80188). The experiment is described as above.
For experiment [8], the target named is Native NGAL (plus DTT - reduced) (UniProt P80188). Nature of the experiment: … sandwich CMIA, capture HYB 211-01, detection acridinium-HYB 211-02; same sample reduced with DTT.
For experiment [9], the target named is Wild-type recombinant human NGAL dimer calibrators treated with DTT (human) (UniProt P80188). The experiment is described as follows: … sandwich CMIA, capture HYB 211-01, detection acridinium-HYB 211-02; calibrator F, NGAL 1000 ng/mL.
Experiment [10] has as its target Wild-type recombinant human NGAL dimer expressed in CHO cells (human) (UniProt P80188). Described as above.
Experiment [11] concerns the target Wild-type recombinant human NGAL dimer calibrators treated with DTT (human) (UniProt P80188). Nature of the experiment: … sandwich CMIA, capture HYB 211-01, detection acridinium-HYB 211-02; curve fit with monomer calibrators; target 600 ng/mL.
For experiment [12], the target named is Wild-type recombinant human NGAL dimer expressed in CHO cells (human) (UniProt P80188). Described as above.
Experiment [13] concerns the target Wild-type recombinant human NGAL monomer expressed in CHO cells (human) (UniProt P80188). Described as above.
Experiment [14] deals with Wild-type recombinant human NGAL dimer calibrators treated with DTT (human) (UniProt P80188). The experiment is described as follows: … sandwich CMIA, capture HYB 211-01, detection acridinium-HYB 211-02; DTT-treated against untreated dimer calibrator; target 1000 ng/mL.
In experiment [15] the target is Wild-type recombinant human NGAL dimer expressed in CHO cells (human) (UniProt P80188). Nature of the experiment: … sandwich CMIA, capture 1-2322-455, detection acridinium-1-903-430; NGAL 250 ng/mL.
In experiment [16] the target is Wild-type recombinant human NGAL monomer expressed in CHO cells (human) (UniProt P80188). The description is as above.
Experiment [17] addresses Wild-type recombinant human NGAL dimer expressed in CHO cells (human) (UniProt P80188). The experiment is described as follows: … sandwich CMIA, capture 1-2322-455, detection acridinium-1-903-430; NGAL 1000 ng/mL.
The target of experiment [18] is Wild-type recombinant human NGAL monomer expressed in CHO cells (human) (UniProt P80188). Described as above.
Experiment [19] has as its target Wild-type recombinant human NGAL dimer calibrators with TCEP in the reaction mixture (human) (UniProt P80188). Nature of the experiment: … sandwich CMIA, capture 1-2322-455, detection acridinium-1-903-430; TCEP in reaction; NGAL 250 ng/mL.
For experiment [20] the target is unchanged. The experiment is described as follows: … sandwich CMIA, capture 1-2322-455, detection acridinium-1-903-430; TCEP in reaction; NGAL 600 ng/mL.
The target is the same in experiment [21]. Nature of the experiment: … sandwich CMIA, capture 1-2322-455, detection acridinium-1-903-430; TCEP in reaction; NGAL 1000 ng/mL.
The target in experiment [22] is Wild-type recombinant human NGAL monomer expressed in CHO cells (human) (UniProt P80188). The experiment is described as follows: … sandwich CMIA, capture 1-2322-455, detection acridinium-1-903-430; monomer calibrator plus TCEP; NGAL 250 ng/mL.
Experiment [23] concerns the target Wild-type recombinant human NGAL dimer calibrators with TCEP in the reaction mixture (human) (UniProt P80188). The experiment is described as follows: … sandwich CMIA, capture 1-2322-455, detection acridinium-1-903-430; TCEP in reaction; curve fit with monomer calibrators; target 600 ng/mL.
Experiment [24] deals with Wild-type recombinant human NGAL monomer expressed in CHO cells (human) (UniProt P80188). The experiment is described as follows: … sandwich CMIA, capture 1-2322-455, detection acridinium-1-903-430; monomer calibrator plus TCEP; curve fit with monomer calibrators; target 50 ng/mL.
For experiment [25] the target is unchanged. The experiment is described as follows: … sandwich CMIA, capture 1-2322-455, detection acridinium-1-903-430; monomer calibrator plus TCEP; curve fit with monomer calibrators; target 1000 ng/mL.

For “anti-NGAL antibody HYB 211-01 from AntibodyShop A/S, Gentofte, Denmark”, the RLUs was determined as 620000 RLUs in experiment [1]; 378000 RLUs in experiment [2]; 142000 RLUs in experiment [3]; 396000 RLUs in experiment [4]; 11400 RLUs in experiment [5]; 4050 RLUs in experiment [6]. For the same molecule, the RLUs in experiment [7] was 12000 RLUs; in experiment [9] it was 855000 RLUs; in [10], 390000 RLUs. Besides, the NGAL concentration detected in [8] came to 23.8 ng/mL. The Curve Fit Results in experiment [11] turned out to be 574 ng/mL; in [12], 161 ng/mL; in experiment [13], 598 ng/mL. Further, the % Increase due to DTT in [14] was 277%.

B1: antibody produced by murine hybridoma cell line 1-2322-455 having ATCC Accession No. PTA-8024 (antibody, V domains shown)
VH: EVQLVESGGGLVQPGGSLKLSCAASGFTFNNYYMSWVRQTPERRLEWVAYISSSGGSTYYSDSVRGRFTISRDTARNTLYLQMTSLKSEDTAMYYCARHFGDYSYFDYWGQGTTLTVSS
VL: DIQMTQSPASLSASVGETVTITCRASENFYSYLAWYQQKQGKSPQLLVYNAKTLAEGVPSRFSGSGSGTQFSLKINSLQPEDFGTYYCQHHYDIPLTFGAGTKLELKR
On to B1, for which the RLUs is 336000 RLUs in experiment [15]; 900000 RLUs in experiment [16]; 993000 RLUs in [17]; 1.93e+06 RLUs in experiment [18]; 535000 RLUs in experiment [19]; 989000 RLUs in [20]. Further, the RLUs came to 1.37e+06 RLUs in [21] and 928000 RLUs in experiment [22]. Also, the Curve Fit Results in experiment [23] was 292 ng/mL; in experiment [24], 48.6 ng/mL; in experiment [25], 1030 ng/mL.
